In article PMC13036090:

B1: UGDH (uridine diphosphate glucose dehydrogenase): S350A (protein)
parent chain: MFEIKKICCIGAGYVGGPTCSVIAHMCPEIRVTVVDVNESRINAWNSPTLPIYEPGLKEVVESCRGKNLFFSTNIDDAIKEADLVFISVNTPTKTYGMGKGRAADLKYIEACARRIVQNSNGYKIVTEKSTVPVRAAESIRRIFDANTKPNLNLQVLSNPEFLAEGTAIKDLKNPDRVLIGGDETPEGQRAVQALCAVYEHWVPREKILTTNTWSSELSKLAANAFLAQRISSINSISALCEATGADVEEVATAIGMDQRIGNKFLKASVGFGGSCFQKDVLNLVYLCEALNLPEVARYWQQVIDMNDYQRRRFASRIIDSLFNTVTDKKIAILGFAFKKDTGDTRESSSIYISKYLMDEGAHLHIYDPKVPREQIVVDLSHPGVSEDDQVSRLVTISKDPYEACDGAHAVVICTEWDMFKELDYERIHKKMLKPAFIFDGRRVLDGLHNELQTIGFQIETIGKKVSSKRIPYAPSGEIPKFSLQDPPNKKPKV
B2: UGDH (uridine diphosphate glucose dehydrogenase): TMG (50 μM) (protein)
parent chain: B1 parent chain
B3: UGDH (uridine diphosphate glucose dehydrogenase): OGT co-expression (protein)
parent chain: B1 parent chain

How the values were obtained:
[1] = steady-state kinetics, Michaelis-Menten fit; settings: glycan lost; control: WT UGDH from HEK293T
[2] = NADH OD340 assay, Flag-purified protein; settings: glycan lost; control: WT UGDH from HEK293T
[3] = Flag-KPNA2 pull-down, HEK293T, IFNγ; settings: glycan lost; control: cells expressing UGDH WT
[4] = HABP immunofluorescence and competitive ELISA; settings: glycan lost; control: UGDH-KO A549 rescued with WT UGDH
[5] = NADH OD340 assay, Flag-purified from HEK293T; settings: glycan gained; control: WT UGDH, no OGT co-expression or TMG

Protein | enzymatic_activity, kcat_Km [1] | enzymatic_activity [2] | other: KPNA2-STAT1 association in cells [3] | other: cellular hyaluronic acid level [4] | enzymatic_activity [5]
B1 | decreases, 0.576 vs 5.07, Km value of 37.7 μM for the S350A, which was 3-fold higher than that of the WT with a Km value of 11.4 μM | decreases | increases | decreases | 
B2 |  |  |  |  | increases
B3 |  |  |  |  | increases
